Paper PMC8617483, “Structure of the ATP synthase from Mycobacterium smegmatis provides targets for treating tuberculosis” (Proceedings of the National Academy of Sciences of the …, 2021)

B1: ATP synthase bδ-subunit from Mycobacterium smegmatis (natural protein, UniProt A0R203 1-445, looked up)
chain: MSIFIGQLIGFAVIAFIIVKWVVPPVRTLMRNQQEAVRAALAESAEAAKKLADADAMHAKALADAKAESEKVTEEAKQDSERIAAQLSEQAGSEAERIKAQGAQQIQLMRQQLIRQLRTGLGAEAVNKAAEIVRAHVADPQAQSATVDRFLSELEQMAPSSVVIDTAATSRLRAASRQSLAALVEKFDSVAGGLDADGLTNLADELASVAKLLLSETALNKHLAEPTDDSAPKVRLLERLLSDKVSATTLDLLRTAVSNRWSTESNLIDAVEHTARLALLKRAEIAGEVDEVEEQLFRFGRVLDAEPRLSALLSDYTTPAEGRVALLDKALTGRPGVNQTAAALLSQTVGLLRGERADEAVIDLAELAVSRRGEVVAHVSAAAELSDAQRTRLTEVLSRIYGRPVSVQLHVDPELLGGLSITVGDEVIDGSIASRLAAAQTGLPD
notes: ATP synthase subunit bδ (natural fusion of a b-domain, a linking domain and a δ-domain), M. smegmatis mc2 155, encoded in the entire atp operon; modelled in substate S1a (PDB 7NJK): 1-162, 169-444; One copy in the enzyme; part of the peripheral stalk; also called fused bδ-subunit
B2: ATP synthase a-subunit from Mycobacterium smegmatis (natural protein, UniProt A0R206 1-252, looked up)
chain: MLAAEEGGAAIHVGHHTLVFELFGMTFNGDTILATAVTAVIVIALAFYLRAKVTSTGVPSGVQLFWEALTIQMRQQIEGSIGMKIAPFVLPLSVTIFVFILISNWLAVLPLQYGGADGAAAELYKAPASDINFVLALALFVFVCYHAAGIWRRGIVGHPIKVVKGHVAFLAPINIVEELAKPISLALRLFGNIFAGGILVALIAMFPWYIQWFPNAVWKTFDLFVGLIQAFIFSLLTILYFSQSMELDHEDH
notes: ATP synthase subunit a, M. smegmatis mc2 155, encoded in the entire atp operon; modelled in substate S1a (PDB 7NJK): 10-247; One copy in the enzyme
B3: ATP synthase ε-subunit from Mycobacterium smegmatis (natural protein, UniProt A0R1Z9 1-121, looked up)
chain: MADLNVEIVAVERELWSGPATFVFTRTTAGEIGILPRHIPLVAQLVDDAMVRVEREGEDDLRIAVDGGFLSVTEETVRILVENAQFESEIDADAAKEDAASDDERTAAWGRARLRALGQID
notes: ATP synthase subunit ε, M. smegmatis mc2 155, encoded in the entire atp operon; modelled in substate S1a (PDB 7NJK): 3-120; One copy in the enzyme
B5: ATP synthase γ-subunit from Mycobacterium smegmatis (natural protein, UniProt A0R201 1-307, looked up)
chain: MAATLRELRGRIRSAGSIKKITKAQELIATSRIAKAQARVEAARPYAAEITNMLTELAGASALDHPLLVERKQPKRAGVLVVSSDRGLCGAYNANVLRRAEELFSLLRDEGKDPVLYVVGRKALGYFSFRQRTVVESWTGFSERPTYENAREIADTLVNAFMAGADDEGDDAGADGILGVDELHIVFTEFRSMLSQTAVARRAAPMEVEYVGEVETGPRTLYSFEPDPETLFDALLPRYIATRVYAALLEAAASESASRRRAMKSATDNADDLIKALTLAANRERQAQITQEISEIVGGANALAGSK
notes: ATP synthase subunit γ, M. smegmatis mc2 155, encoded in the entire atp operon; modelled in substate S1a (PDB 7NJK): 3-213, 220-304; One copy in the enzyme

Assays:
Test in all cases: cryo-EM structure; single particles of the ATP synthase purified in detergent and inhibited with bedaquiline (25 μM); 63 maps and 27 models, resolutions 2.11 to 4.15 Å; states S1 to S3 and substates
[1] = target: T1, ATP synthase α-subunit from Mycobacterium smegmatis (Mycobacterium smegmatis, UniProt A0R202 1-548); conditions: both partners purified
T1 construct: ATP synthase subunit α, M. smegmatis mc2 155, encoded in the entire atp operon; modelled in substate S1a (PDB 7NJK): αE 5-21, 29-406, 411-521; αTP 5-21, 29-406, 411-521; αDP 6-406, 413-521, 527-545; Three copies in the enzyme (α3β3); also called αE; αTP

[2] = target: B1; conditions: both partners purified
[3] = target: B5; conditions: both partners purified
[4] = target: the molecule itself
[5] = target: B3; conditions: both partners purified
[6] = target: B2; conditions: both partners purified

T1 sequence (A0R202 whole entry): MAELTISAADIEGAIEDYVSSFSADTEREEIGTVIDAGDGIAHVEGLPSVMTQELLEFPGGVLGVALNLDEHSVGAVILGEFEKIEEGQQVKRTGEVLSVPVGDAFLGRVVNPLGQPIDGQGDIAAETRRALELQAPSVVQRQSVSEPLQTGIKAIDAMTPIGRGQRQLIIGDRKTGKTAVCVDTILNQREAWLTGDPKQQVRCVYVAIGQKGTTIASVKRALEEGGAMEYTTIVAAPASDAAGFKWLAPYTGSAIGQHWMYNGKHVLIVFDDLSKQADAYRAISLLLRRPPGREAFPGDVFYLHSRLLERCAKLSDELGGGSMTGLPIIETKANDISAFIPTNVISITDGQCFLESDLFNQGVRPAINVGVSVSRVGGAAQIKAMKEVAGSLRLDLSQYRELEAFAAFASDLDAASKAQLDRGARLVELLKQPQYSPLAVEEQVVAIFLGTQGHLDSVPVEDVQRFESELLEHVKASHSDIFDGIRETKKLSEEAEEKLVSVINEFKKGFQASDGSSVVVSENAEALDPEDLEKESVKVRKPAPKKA

B1: binds [1].

B2: binds [2].

B3: binds [3].

B4: ATP synthase c-subunit from Mycobacterium smegmatis (natural protein, UniProt A0R205 1-86, looked up)
chain: MDLDPNAIITAGALIGGGLIMGGGAIGAGIGDGIAGNALISGIARQPEAQGRLFTPFFITVGLVEAAYFINLAFMALFVFATPGLQ
notes: ATP synthase subunit c, M. smegmatis mc2 155, encoded in the entire atp operon; modelled in substate S1a (PDB 7NJK): 3-86 in all nine copies; Nine copies form the c9-ring of the rotor; in the rows with a and ε the subunit stands in that ring; also called c9-ring; c-ring
In the case of B4, the “stoichiometry N” value [4] is reported as 9, the binding result [5] is reported as “binds” and the binding result [6] is reported as “binds”.

B5: binds [1].

B6: ATP synthase b′-subunit from Mycobacterium smegmatis with a C-terminal His10-tag (natural protein, UniProt A0R204 1-170, looked up)
chain: MGEFSATILAASQAAEEGGGGSNFLIPNGTFFAVLIIFLIVLGVISKWVVPPISKVLAEREAMLAKTAADNRKSAEQVAAAQADYEKEMAEARAQASALRDEARAAGRSVVDEKRAQASGEVAQTLTQADQQLSAQGDQVRSGLESSVDGLSAKLASRILGVDVNSGGTQ
notes: ATP synthase subunit b′, M. smegmatis mc2 155, encoded in the entire atp operon; modelled in substate S1a (PDB 7NJK): 22-166; residues 1 to 21 had no density but are present in the assembled enzyme; One copy in the enzyme; part of the peripheral stalk; No removal of the tag is told; also called b-subunit (in some sentences)
B6: binds [3]; binds [6]; binds [1]. B6: binds [2].

B7: ATP synthase β-subunit from Mycobacterium smegmatis (natural protein, UniProt A0R200 1-475, looked up)
chain: MTATAEKTAGRVVRITGPVVDVEFPRGSVPELFNALHAEITFGALAKTLTLEVAQHLGDSLVRCISMQPTDGLVRGVEVTDTGASISVPVGDGVKGHVFNALGDCLDDPGYGKDFEHWSIHRKPPAFSDLEPRTEMLETGLKVVDLLTPYVRGGKIALFGGAGVGKTVLIQEMINRIARNFGGTSVFAGVGERTREGNDLWVELADANVLKDTALVFGQMDEPPGTRMRVALSALTMAEFFRDEQGQDVLLFIDNIFRFTQAGSEVSTLLGRMPSAVGYQPTLADEMGELQERITSTRGRSITSMQAVYVPADDYTDPAPATTFAHLDATTELSRAVFSKGIFPAVDPLASSSTILDPAIVGDEHYRVAQEVIRILQRYKDLQDIIAILGIDELSEEDKQLVNRARRIERFLSQNMMAAEQFTGQPGSTVPLKETIEAFDKLTKGEFDHLPEQAFFLIGGLDDLAKKAESLGAKL
notes: ATP synthase subunit β, M. smegmatis mc2 155, encoded in the entire atp operon; modelled in substate S1a (PDB 7NJK): βE 8-471; βTP 7-475; βDP 8-475; Three copies in the enzyme (α3β3); also called βE; βTP
B7: binds [1].
